# The domain aggregation screens of Martell et al. (2025)
# Test: soluble fraction after stress (log2 fold change); higher = more stays soluble; pooled small domains, quantitative proteomics
# Conditions: stress: pH 4
# How it was run: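 Aggregation propensity is estimated from the fold change in each domain's soluble amount after acid stress. Pooled small-domain libraries were stressed at pH 4, and higher log2 values mean more stayed soluble.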
row,Sequence,soluble fraction (log2)
1,HMQPRYMLIKTAILDAIERGEMKPGSQVPSENQLAQQHNVSRMTARRALSEMVDDGILMRSQGIGTFVSD,-0.591
2,HMSENDTILAKFASIINNKSLELVIFPDTAYLKGQVSTPEDKARAETVAQSLLGSKPLISLIEFE,-0.167
3,HMSPQIDYFDDEELDVYRQIAPEAYTDEQIEVFRDILYTLRPEEVEEWLISLEKREINLPLILRQEAIELI,0.156
4,HMGVIDTLSGPQKAAAILVAIGRPSASRLLKHFNAEDLRKLAGHARTLEPISPLDFEHLVKQFEDSFAEG,-0.745
5,HMTLPELTDRELQILQLLSVGNSSQKIAKQLNISTHTVSTHRKQLLRKLGAQNGADLIRRAQKLGIL,0.0897
6,HMQPPLTPRELGVLQWAAEGKTTRDTSAILQIHQRTVEMHLKSAREKLDALNTTHAVARALAHGFILPPS,0.102
7,HMDGPELYESMKAIVPDQLDRTIFLTGGAYTPRAQEFLARVPNQQMEKPFEFEALRSLLARLT,-0.199
8,HMDYLSEFITDKVVRADGYSIRKGELSNEFKQWFITNVGTKNPKPKEIHDYMDRKFGKNKNGIWKNVKIKL,-0.0984
9,HMSQNTHTIPSREDILGIFRSVNAPLDPQSLGKTLQVHADSMDVLVRRLKAMERDGQLKSDASGVFSLAD,0.314
10,HMNNYEGIVKSVSNSNVYIQVAGRTIGYTISPHTIIMVNGKNVPASELMPGQHVSYTNKGSKLSYININS,0.205
11,HMKKPLEYIDVDKREDFPPVPNGMRYIHFYGGTKNYRAYIAPEDISRADFMEQYPEYVPEHN,0.0177
12,HMDPVQLEVIKKLNLLNAQKPKDIYALRDVLSEMFPQSDIRLLLKELLDKGYIYWNGHEVIYSHEMF,-0.431
13,HMGHKTLTVELQEKIENLPQTLDKYNLTLGNNKMSVDYTYSVKEKQTGITNLLQDLKEHKFDIVYLVGQDN,-0.613
14,HMDIYENIDKELSKQGKSRRKLAIAAGIPPSTFQSMMERKRGLSVENLRKIAEVLNLKWYDLL,0.135
15,HMDDPDALITDSQLKAIHVLLGKLKIDDNLKHAYIADVLQLKDIPETLKTLTKHQGSTIIERLNLLIKDA,-0.0657
16,HMEIGLIRVDSRLIHGQVITKWLNYSKANVIVVVDDELSKDSFMSEIYKASAPNGIIVEILSIDDFMKNT,-0.142
17,HMTPVTYELTVQSGAGQRIDKYLSEQLADLTRSYLQKLLKDGGVTVNGKTVKSNYKLSENDQIFLEVPDA,0.0962
18,HMTSPELIELGERIRKRRQEMNLSQEALAEKAGISINTVSRVEGGQTAMSIEIFRKMIEILETDANGL,-0.804
19,HMQLTDSDFTRLYTYVKNSYGIDLSKKKQLISSRLTNMLIQQGYRDFTQYTDEIISGKNPEMVSAMLNRLT,0.0695
20,HMTQSPLHWSHRPIDLSELLTYLDRDGAFVYASGHKAPFTEVVRGFEHLLNIRLGDPRDVKRSVLQR,-0.282
21,HMITEDQVIARIGLLSPAEKSLLKDKLERFRRLTLSEQQHLREFHSALDNHDKRTDLLNVLRKYNDWVNQL,-0.736
22,HMGTRHPLPYAFAKAHTVLLEDDGDRLLLHAAENSGPSALGEILRLYDVDALERETASTLANRIAVAYAG,0.163
23,HMRFTVSDKMDMLLKSLSAGQSMPFKSLFASASTKSEVIVTFLALLELMKLNQFVVWQDQILGEIEIERR,-0.162
24,HMGVGTTDERLAVLNQIASRQTEALEKLGPNNPLVGLGQIRNTLSKMLEISGYPDSNQFFKQVPLDYEPPP,-0.0341
25,HMDIDASEVRGIISQYINEPDGRVSYILETIQKKYRYLPEEAIRIVAQELEVPLTQLFGVATFYAAFSL,0.0192
26,HMVERRVRFTVAPGNAGLRLDLFLTAREIGLSRTQVGRAVDEGQIQVNGRPGRAGRKLKTGDVVAIVLPA,-0.0969

row,Sequence,soluble fraction (log2)
1,HMQQVDWGSVFGDFGTMFKDQLQPTIDRLRRMAQSDTFRQSSLEEQQILYSLIEKLERSGTA,-2.1
2,HMSIGLEELVGSHGEAITDLRPAGQVSIAARRISAVSEGDFINKGDSVEVLSVEGYRVMVRKLET,-0.4
3,HMAEVHVDGVTYQFSNPEQAVKFARKIAKELGLKVEVHGETVHVK,0.0901
4,HMPKHFIDFSEGEVVSITDGPFKGFDGAISEIDNQKGKVKVMVSMFGRDTSVELDALQVKKV,-0.364
5,HMIPYQDPLPKGAEESLLSKYPGFEITGVHFVNDTNFIGYKVRLERGEDREEISLDVNGKFL,-0.169
6,HMSASSDATRQRVLRAAEQLFGAKGVENVSLREMTTLAGVNLAAVNYHFGSKDALAEAVFEALSER,0.138
7,HMNDREAAYEDLPDELVRVGQKVFIKSLETEGVIVQPPNKKGEVRVRSGNISTNVKRSDLGLPIEKP,0.149
8,HMIMNKEIPVVADEFVEKEFGTGAVKLTPAHDPNDYESGERHGLEVVEVFDETGKMNDLVPEYEG,-0.0198
9,HMRIETLESLANRLAYKAYRTGRKVELEPMNPFERRVIHTALQNSKYATTESEGEDMNRHIVIVPKEGG,0.247
10,HMIHTYVETRKVGNNDGLIRVDNKYYRVPQHLVGMKVQIQIDEATISVLQGGVMVATLDKTADVFNPQA,-1.74
11,HMEPELLTTKQVASVMNIGEERARAILLSRGVQPVSLPWGKERKTLRWSRRAVMTVIDTLHAEAQAKAGV,0.18
12,HMQEERLTFDTLLGISGIGPRLALAVLSRFTPGSLAAAVDAGDTKAFSAVPGVGNRTASRIILELKGKL,-0.238
13,HMTDEEKENLREKMLEAGFPLLKQYGMTHTSVAKITQAAGIAVGTFYSFWKNKEAYMADLIGYHRR,0.105
14,HMKHKYWEIKERIKKDILNEVYKKGESIPSERDLAGIYDVTRVTVQKAMAMLVQEGYIERIHGKGMFVLKN,-0.0581
15,HMTEFDVIMKSFGSEKIKVIKEVRAITGLGLAEAKALVEGVPAKIKEQVSKDDAEALKKQLEAVGAEVEL,-0.76
16,HMGLRERLLNYIAYKGIDKATLERKSGLSNDAVNKMGDNTRVSTLDKISNAFPDINIAWLKTGVGEMILG,0.146
17,HMIADDLKSLEGVDQDMLRDLAEAGINTRDDLAELAIDELIEITGVSTEEAEKVIMAARAHWFEEES,-1.74
18,HMETAADLLAAAKENPARFGILASEGRFGLGYMNDDLLDPDNLVAISREEADDLRGLGVYFHNLD,-0.308
19,HMEEVRFPLKKEILLWALKEAQVDEDEVFRKFTNLEKWINGEKHPTFKQIESLANYLKIPFGYMFLEKPPI,-1.47
20,HMTKVIEFLVSDEEHGVRADKAFVSHNQKLSRSYFKKLILNGNLYINNKVNLDPSYKLIKGSTVRIILPE,-0.698
21,HMITDQQKEQLSSLLKQAEAALAKAAANDQVLAAHKDEAVELLKSTSATSADAADLINELTELLKPYQ,-0.605
22,HMSDEEAISKLPGVGPAILEKLKEAGYNDIMTIAVDSPKNLAELAEIGEPTAAKIIAAAKKAAD,-0.109
23,HMTNYYTVTFKEGDTVLKEVSVHSGDGVPYAVAPKRDDIVGWSYNGNTYTTDLNTLKIKKEVTFTAVT,0.183
24,HMTDKLEEEAKKKAMEDALADEMNISKTIVHDGIRELARIGFLDVISRKGIYVADYTFTGNLETLLAVIRY,-0.0919
25,HMLGARIAALRRQAGMNQGELAKKLGISPSTVGMYEQGRREPSAEMLVRLAEAFSVSTDFLLT,-0.0832
26,HMSDIDIDVENDRAALAIAGGKLNHLVGARGEVLDALQELTRLAVQTSLGERSRLMLDIDNFRSD,0.0463

row,Sequence,soluble fraction (log2)
1,HMKRDNETRRRIVAAAEELFRAKGLDGVNMRELAEMAGVNKGLLHYYFKTKQALFREILVGQMAL,-0.0908
2,HMANKTISMTTLKLVIQQLSKGISRQSISAQYHISRNTIKKYEKRIKAMDMKIEDILKLSDEEISNLLQ,-0.273
3,HMSEFGENLKKLRTARDLTQQELGAKVGLSKAVVSKYENGLGYPTFDVLIRIAAYFGVTTDYLLGV,-0.309
4,HMEYKYNPADYPYPLNEDIEKVYSAYREKSIGKLEAAVQNLYYTLKQARRDNILSDVKVNEMQQYFLALRN,0.0584
5,HMSEEAMVSNFRQQEILELARKDGKVTVDGLAELYDVTVQTIRRDLSDLADSGRLKRVHGGAVVPS,-0.465
6,HMESIGANIRRLRKERNMSQDELARKAFTNRSNINRYESGKMVPSADTTEKIEEALGVPAGTLAQ,-0.638
7,HMDDTRLELTLLGKIHNDEEINKQSHINVNIKNGVILLTGESPRREITERILTLARTFEHTRQIVNQIAT,-0.515
8,HMIKVASVDGASDELAHEIREIMPLDFPVSYFDLDIKYLHKVLNDIPAVESAAIKVTVSGVLQIDISER,0.248
9,HMLHEFSGVVVSILADTGPSTLKQLHRSLISSDVKMDEKELMQILDEALSSGSVTSHRKGRYLYYSANK,-0.399
10,HMGLKQADFEELASRIFTVLEEKSMTPAEIVRKLNLEPDRISIVIQYLLDEGKLNIKDGFINNSA,-0.773
11,HMDSITEADLLRWAHALSGIARTGLGFTESRYERERYEEVLAVAADILAASSRSHDRAALVDEWLKMVGV,-1.55
12,HMTDLEDDEKKVYRLIVESGEGIDFDTLSERSGFSATELPSILLFLMMKEMIDELPGKIYRYSE,-0.327
13,HMEKTTTLFDETTNPGIIYIGKAMPTGSAISEAAAVWAIKTIDTTTDTEIKWADGVTTYTKVWNNRASYSY,-1.35
14,HMPENESPEEKHARFRRFAEGLMARLDENESVRDILPELKVWLDDRELDRDDQRLARNLMLTAGKRE,-0.0664
15,HMQLVGSSAAVLIPAPAGGLGKIRLEFRGQTIDLIAKATDGGALIEGGAVTIVDVRDGQADVSV,-0.329
16,HMPSPEVELLEDLLSKTDEAEVEAAFHENQALVNDEFKAMLGSLIQELSKTQEADPEIIARIRFIQKLT,-1.27
17,HMLDIVVGSTGYALGEITDHSGTVRVNGDTWTARLVDAAGPVEDGDRVEVYAVEGTTLLVYPS,0.128
18,HMKLSIEDLAAELIRKIEAGDIGNEQGKMPSERELLAIYPVSRYTLRQALNKLSKMGWIYQMQGRGSYIRF,-0.83
19,HMDRRFFVAEENYKRLDVFLSERMEEFTRSRIKKLIDEGHVELNGKSAKAGAEIRPGDEVAAEIPEVKE,0.239
20,HMTNYREILRLRSLGLNHSRIAESMGISRPTVIAALQRAQTQELNWQAAESLSDIDLAQRLNP,-0.2
21,HMGDGRVGVITASIAYEYAKEVFPEGTSFLKLGLTFPLPMDLIRDFASKVEKLYVIEELEPL,-1.72
22,HMEMTGAHLRKKIRAKGFTFQQIADAIGESKQNLSQILSTNNIKTGTLERIAAAMGESVSYF,0.167
23,HMDAIDQDGNHMTFKRWGEQLQEAFQALEAYDTDKAKTILNELIKFPIDSDLNNALKGILSNIDEMMA,-0.68
24,HMEDEVYFVPSPASRFNPWIAALASRRVPYRVEYDGAERRIAVPAGYAEKAGEELAAYERINHAWPR,-0.111
